Data as given in the supplement of paper PMC9876800.

Tested on: peptide library, one residue held at a place counted from the S/T acceptor
Test: relative phosphorylation of the sub-library (ratio to the mean residue at this position); higher = residue favoured
Details: human
How it was run: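 Human or orthologue kinase constructs, purified and recombinant, were incubated under kinase-specific conditions in 384-well plates with biotinylated degenerate peptide sub-libraries. Each sub-library fixed one residue at one position around a central Ser/Thr. Incubations lasted 90 min with peptides at 50 μM and 50 μM ATP spiked with γ-32P-ATP, after which spots on streptavidin membranes were phosphorimaged and quantified by densitometry. Relative sub-library phosphorylation is a ratio to the mean residue at that position.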

Chain of MAPK12, construct: Full length (P53778 whole entry, looked up): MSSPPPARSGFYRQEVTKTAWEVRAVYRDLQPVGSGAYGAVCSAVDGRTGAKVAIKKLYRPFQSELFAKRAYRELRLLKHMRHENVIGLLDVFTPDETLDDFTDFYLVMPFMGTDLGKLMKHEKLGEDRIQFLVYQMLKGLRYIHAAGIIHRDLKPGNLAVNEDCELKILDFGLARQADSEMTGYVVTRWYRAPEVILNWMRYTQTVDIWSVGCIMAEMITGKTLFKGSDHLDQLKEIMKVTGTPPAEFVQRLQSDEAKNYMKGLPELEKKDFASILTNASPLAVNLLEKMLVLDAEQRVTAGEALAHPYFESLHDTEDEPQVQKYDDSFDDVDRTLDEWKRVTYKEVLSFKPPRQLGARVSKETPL
Chain of PDK4, construct: Full length (Q16654 whole entry, looked up): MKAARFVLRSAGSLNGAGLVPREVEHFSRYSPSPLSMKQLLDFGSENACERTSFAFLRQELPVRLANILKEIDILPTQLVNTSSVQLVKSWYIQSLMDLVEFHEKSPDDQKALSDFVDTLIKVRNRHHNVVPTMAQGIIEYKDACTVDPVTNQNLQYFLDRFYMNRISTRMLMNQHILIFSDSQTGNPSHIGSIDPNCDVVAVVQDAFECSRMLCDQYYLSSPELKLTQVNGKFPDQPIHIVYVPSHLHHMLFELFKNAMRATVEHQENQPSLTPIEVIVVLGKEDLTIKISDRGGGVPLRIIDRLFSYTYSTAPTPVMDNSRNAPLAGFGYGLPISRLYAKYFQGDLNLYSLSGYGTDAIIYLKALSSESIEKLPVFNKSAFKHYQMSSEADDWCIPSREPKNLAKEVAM

MAPK12, construct: Full length (from UniProt P53778)
relative phosphorylation
Details	at +1	at +2	at +3	at +4	at -1	at -2	at -3	at -4	at -5
A fixed	0.289	1.22	1.13	1.01	1.21	1.66	1.13	1.19	1.07
D fixed	0.0904	0.475	0.864	0.879	0.738	0.789	1.23	1.28	1.22
E fixed	0.0906	0.374	0.973	0.872	0.905	0.822	1.41	1.21	1.14
F fixed	0.153	0.77	0.897	1.1	0.582	0.444	0.622	0.672	0.818
G fixed	0.644	1.1	1.36	1.23	1.36	1.14	1.98	1.44	1.34
H fixed	0.183	1.38	1.26	1	1.17	0.584	1.23	1.04	1.16
I fixed	0.187	1.31	0.697	0.881	0.542	0.946	0.712	0.774	0.715
K fixed	0.152	1.08	0.962	0.931	1.04	0.433	0.761	1.12	1.28
L fixed	0.198	0.947	0.845	0.994	1.03	1.31	0.643	0.855	0.733
M fixed	0.17	0.878	0.851	1.15	1.27	1.16	0.838	0.949	0.83
N fixed	0.108	0.806	0.852	0.821	0.878	0.819	1.01	1.07	1.03
P fixed	13.8	0.539	1.33	1.11	1.37	3.27	1.33	1.11	1.27
Q fixed	0.141	0.914	0.934	0.921	1.13	0.742	0.918	0.916	0.937
R fixed	0.174	1.84	1.28	0.908	1.48	0.664	1.05	1.03	1.06
V fixed	0.302	1.36	0.855	0.89	0.611	1.31	0.649	0.654	0.823
W fixed	0.181	0.851	0.894	1.18	0.674	0.457	0.674	0.869	0.725
Y fixed	0.159	1.15	1.02	1.12	1.01	0.446	0.802	0.827	0.859
pThr fixed	0.509	1.04	0.824	0.669	0.457	0.823	1.27	1.15	1.42
pTyr fixed	0.52	0.799	0.925	0.686	0.878	1.11	1.56	1.28	1.44

PDK4, construct: Full length (from UniProt Q16654)
relative phosphorylation
Details	at +1	at +2	at +3	at +4	at -1	at -2	at -3	at -4	at -5
A fixed	0.674	0.87	1.15	0.987	1.05	0.953	0.939	0.873	1.06
D fixed	0.79	1.21	1.1	1.16	1.09	0.775	0.841	0.861	0.995
E fixed	0.679	1.64	1.06	0.972	0.718	0.715	0.788	0.818	0.876
F fixed	1.34	0.962	1.52	1.07	1.21	1.03	1.65	1.53	1.25
G fixed	0.705	1.22	1.05	1.06	1.29	1.22	1.02	0.992	1.03
H fixed	0.838	0.883	1.09	0.947	1.02	1.23	1.11	0.983	0.996
I fixed	1.2	0.742	1.03	0.802	0.778	0.776	0.912	0.897	0.99
K fixed	0.692	0.745	0.622	0.834	0.847	0.889	0.827	0.86	0.88
L fixed	1.74	0.951	0.993	0.98	0.947	0.97	0.961	0.905	1.05
M fixed	1.48	1.06	1.23	1.02	1.15	1.08	1.07	1.04	1.29
N fixed	0.732	1.05	0.898	1.36	1.1	0.883	0.906	0.964	1.15
P fixed	0.825	0.823	0.93	1.01	0.874	1.09	0.973	0.878	0.723
Q fixed	0.862	1.09	0.818	0.959	0.89	0.964	0.912	0.95	0.791
R fixed	0.853	0.939	0.729	0.968	1.03	1.02	0.913	0.962	0.869
V fixed	0.972	0.791	0.771	0.828	0.783	0.864	0.831	0.827	0.825
W fixed	1.61	1.03	1.01	1.04	1.22	1.55	1.35	1.66	1.21
Y fixed	1.34	0.962	1.52	1.07	1.21	1.03	1.65	1.53	1.25
pThr fixed	0.849	1.01	1.27	1.36	0.587	0.794	0.865	0.973	1.09
pTyr fixed	0.895	1.19	0.99	1	0.7	0.943	1.31	1.83	1.07

PRKCB, construct: Full length (from UniProt P05771)
relative phosphorylation
Details	at +1	at +2	at +3	at +4	at -1	at -2	at -3	at -4	at -5
A fixed	0.614	0.584	0.815	1.08	1.16	1.17	0.836	1.3	1.35
D fixed	0.203	0.219	0.509	0.604	0.516	0.531	0.379	0.694	0.677
E fixed	0.288	0.177	0.503	0.546	0.489	0.468	0.438	0.654	0.676
F fixed	0.881	0.35	0.602	0.636	0.435	0.597	0.639	0.72	0.947
G fixed	0.585	0.365	1.09	1.22	1.65	1.37	0.95	1.57	1.45
H fixed	0.861	1.39	1.36	1.37	1.24	1.23	1.47	1.17	1.26
I fixed	1.05	0.413	0.529	0.559	0.214	0.323	0.214	0.393	0.452
K fixed	2.49	3.97	2.36	2.46	2.15	1.93	1.91	1.64	1.67
L fixed	0.864	0.469	0.796	0.644	0.563	0.448	0.371	0.517	0.71
M fixed	1.61	0.604	0.68	0.705	0.779	0.662	0.606	0.898	0.684
N fixed	0.691	0.909	1.09	1.13	1.34	1.52	1.07	1.11	1.04
P fixed	0.289	0.305	0.606	1.27	1.09	0.87	0.983	1.2	1.22
Q fixed	1.45	0.727	1.1	1.2	1.04	1.47	1.08	1.24	1
R fixed	2.18	4.58	2.22	1.46	2.25	2.3	4.21	1.78	1.44
V fixed	1.11	0.443	0.627	0.683	0.496	0.462	0.354	0.504	0.695
W fixed	0.813	0.627	1.03	0.83	0.556	0.933	0.68	0.933	1.19
Y fixed	1.03	0.86	1.07	0.618	1.04	0.717	0.805	0.679	0.531
pThr fixed	0.842	0.433	0.621	0.672	0.372	0.756	0.666	0.932	0.844
pTyr fixed	0.519	0.272	0.651	0.434	0.732	0.712	0.693	0.806	0.983
